The text below walks through data of patent US10500249B2, “Compositions and methods for preventing or treating diseases, conditions, or processes characterized by aberrant fibroblast proliferation and extracellular matrix deposition” (MOERAE MATRIX, INC., priority 2014, dated 2019).

The target in one assay is T1, Aurora-A (h) (Homo sapiens, UniProt O14965).
T1 sequence (O14965 1-403): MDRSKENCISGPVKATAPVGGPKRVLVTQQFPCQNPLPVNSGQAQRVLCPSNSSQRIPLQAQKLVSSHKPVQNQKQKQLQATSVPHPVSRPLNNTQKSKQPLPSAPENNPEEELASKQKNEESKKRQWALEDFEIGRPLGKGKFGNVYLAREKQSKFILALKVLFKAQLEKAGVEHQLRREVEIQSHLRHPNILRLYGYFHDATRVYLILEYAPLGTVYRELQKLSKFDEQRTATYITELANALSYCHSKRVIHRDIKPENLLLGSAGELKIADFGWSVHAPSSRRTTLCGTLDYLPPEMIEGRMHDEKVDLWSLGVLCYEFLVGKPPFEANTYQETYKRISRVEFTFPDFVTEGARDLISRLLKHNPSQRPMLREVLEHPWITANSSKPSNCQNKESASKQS
The assay can be described thus: Kinase Profiling Assay. In kind it is biochemical. The settings on record: 100 μM. An outline of the steps: (§1)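 Duplicate wells; [radiolabeled] ATP phosphate onto cationic substrate; filter capture (negatively charged membrane); scintillation count; % of 100% activity control. Selectivity screen of MK2 peptide inhibitors, 266 human kinases.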

The target of another assay is T2, CK1γ2 (h) (Homo sapiens, UniProt P78368).
T2 construct: purchased Millipore
Kind of assay: Kinase Profiling Assay. Particulars: 100 μM. The format is biochemical. An outline of the steps:
as §1

A further assay concerns the target JNK1α1 (h) (Homo sapiens, UniProt P45983). Kind of assay: Kinase Profiling Assay. The format is biochemical. The settings on record: 100 μM. An outline of the steps:
as §1

In another assay the target is T3, IGF-1R (h) (Homo sapiens, UniProt P08069).
T3 construct: purchased Millipore
Kind of assay: Kinase Profiling Assay. In kind it is biochemical. The settings on record: 100 μM. An outline of the steps: as §1

Another assay concerns the target T4, MRCKα (h) (Homo sapiens, UniProt Q5VT25).
T4 construct: purchased Millipore
Kind of assay: Kinase Profiling Assay. The format is biochemical. The settings on record: 100 μM. Summed up: as §1

The target of the next assay is T5, PAK6 (h) (Homo sapiens, UniProt Q9NQU5).
T5 construct: purchased Millipore
The assay can be described thus: Kinase Profiling Assay. In kind it is biochemical. Particulars: 100 μM. Summed up: as §1

The target in another assay is Snk (h) (Homo sapiens, UniProt Q9NYY3). Kind of assay: Kinase Profiling Assay. The format is biochemical. Particulars: 100 μM. Summed up: as §1
Assay [1] relates to bleomycin-induced lung fibrosis. The assay can be described thus: Bleomycin mouse model of pulmonary fibrosis (prevention model). The format is in vivo, C57BL/6 mice. Particulars: 25, 50 or 75 μg/kg daily IP, day 7 through day 21. The protocol: A mouse model of pulmonary fibrosis was generated by administering 0.025 U of bleomycin/PBS intratracheally to C57BL/6 mice. […] At 21 day post bleomycin delivery (for prevention model) or 28 post bleomycin delivery (for treatment model), groups of mice were sacrificed with a sodium pentobarbital injection (120 mg/kg) and the chest cavity was opened. The right mainstem bronchus was ligated and the right lung was removed. The trachea was cannulated and the left lung was perfused with 4% formaldehyde at 21 cm H2O pressure. The tissue blocks then were embedded in paraffin, and […] sections were prepared for staining. Sections from each animal were stained with hematoxylin and eosin (H&E) to visualize cells or with Masson's Trichrome staining to highlight collagen deposition. […] Stained sections were mounted onto a labeled glass slide with organic mounting medium.
Briefly, fibrotic loci in the lungs of the mice were induced by delivering intratracheally about 0.025 U of bleomycin (dissolved in PBS) to C57BL/6 mice. […] Briefly, mice were sacrificed with a sodium pentobarbital injection (120 mg/kg) and the chest cavity was opened. The right mainstem bronchus was ligated and the right lung was removed. The trachea was cannulated and the left lung was perfused with 4% formaldehyde at 21 cm H2O pressure. The tissue blocks then were embedded in paraffin, and […] sections were prepared, and stained with hematoxylin and eosin (H&E; for pathological examination) or Masson's Trichrome (for collagen staining)
Next, total collagen levels in the lungs of the bleomycin-injured mice (FIG. 12) were analyzed quantitatively by computing a constant conversion factor (7.5) for collagen from hydroxyproline concentrations (Neuman R. and Logan M, J Biol Chem., 186(2):549-56, 1950, incorporated by reference).
Next, the effect of increasing doses of MK2 peptide inhibitors on collagen deposition was examined in vivo using the bleomycin mouse model of idiopathic pulmonary fibrosis (prevention model). Briefly, C57-BL/6 mice were subjected to bleomycin injury at day 0.

Another assay deals with T6, CK1γ1 (h) (Homo sapiens, UniProt Q9HCP0).
T6 construct: purchased Millipore
Kind of assay: Kinase Profiling Assay. In kind it is biochemical. The settings on record: 100 μM. Summed up: as §1

The target of the next assay is T7, CLK2 (h) (Homo sapiens, UniProt P49760).
T7 construct: purchased Millipore
Kind of assay: Kinase Profiling Assay. In kind it is biochemical. Particulars: 100 μM. Summed up:
as §1

For the next assay, the target named is T8, PAR-1Bα (h) (Homo sapiens, UniProt Q7KZI7).
T8 construct: purchased Millipore
Kind of assay: Kinase Profiling Assay. The format is biochemical. Particulars: 100 μM. Summed up: as §1

The target in the next assay is Plk1 (h) (Homo sapiens, UniProt P53350). The assay can be described thus: Kinase Profiling Assay. The format is biochemical. The settings on record: 100 μM. Summed up:
as §1

Assay [2] relates to human fetal lung fibroblasts (IMR-90), α-SMA. Kind of assay: TGF-β-induced myofibroblast activation, α-SMA immunoblot. In kind it is cell-based. Particulars: 1 h pre-treatment, then TGF-β1 (2 ng/ml) 48 h. An excerpt: Cell lysates were immunoblotted against antibodies for α-SMA (a marker for myofibroblast activation) and GAPDH (loading control).
Assay [3] relates to human fetal lung fibroblasts (IMR-90), fibronectin. Kind of assay: TGF-β-mediated fibronectin expression. The format is cell-based. The settings on record: 1 h pre-treatment, then TGF-β1 (2 ng/ml) 72 h. The protocol:
Fibronection was measured as secreted fragments in the conditioned media. Equal amounts (14 μg) of total proteins from the conditioned media were loaded in each lane.

The target in the next assay is T9, c-RAF (h) (Homo sapiens, UniProt P04049).
T9 construct: purchased Millipore
Kind of assay: Kinase Profiling Assay. The format is biochemical. The settings on record: 100 μM. An outline of the steps:
as §1

Chain of Snk (h) (Q9NYY3 whole entry, the tested form may be a part): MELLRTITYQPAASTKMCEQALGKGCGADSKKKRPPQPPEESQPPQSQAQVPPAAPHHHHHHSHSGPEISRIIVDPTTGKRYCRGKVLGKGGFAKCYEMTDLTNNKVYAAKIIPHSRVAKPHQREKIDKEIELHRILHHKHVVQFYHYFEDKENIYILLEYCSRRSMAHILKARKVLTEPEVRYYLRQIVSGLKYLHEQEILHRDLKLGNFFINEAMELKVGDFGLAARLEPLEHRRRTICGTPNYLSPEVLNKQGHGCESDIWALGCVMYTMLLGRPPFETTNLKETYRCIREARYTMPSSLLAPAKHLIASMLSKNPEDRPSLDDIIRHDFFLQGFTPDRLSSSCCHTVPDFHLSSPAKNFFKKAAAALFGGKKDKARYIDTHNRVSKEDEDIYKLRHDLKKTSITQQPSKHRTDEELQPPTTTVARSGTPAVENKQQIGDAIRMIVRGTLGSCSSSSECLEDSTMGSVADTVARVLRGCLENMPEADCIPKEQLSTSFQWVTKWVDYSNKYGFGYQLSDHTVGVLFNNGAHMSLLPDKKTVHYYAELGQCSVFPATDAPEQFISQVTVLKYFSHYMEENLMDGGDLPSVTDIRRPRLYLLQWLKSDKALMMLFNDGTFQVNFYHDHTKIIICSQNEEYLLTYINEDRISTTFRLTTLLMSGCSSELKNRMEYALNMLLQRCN
T4 sequence (Q5VT25 whole entry): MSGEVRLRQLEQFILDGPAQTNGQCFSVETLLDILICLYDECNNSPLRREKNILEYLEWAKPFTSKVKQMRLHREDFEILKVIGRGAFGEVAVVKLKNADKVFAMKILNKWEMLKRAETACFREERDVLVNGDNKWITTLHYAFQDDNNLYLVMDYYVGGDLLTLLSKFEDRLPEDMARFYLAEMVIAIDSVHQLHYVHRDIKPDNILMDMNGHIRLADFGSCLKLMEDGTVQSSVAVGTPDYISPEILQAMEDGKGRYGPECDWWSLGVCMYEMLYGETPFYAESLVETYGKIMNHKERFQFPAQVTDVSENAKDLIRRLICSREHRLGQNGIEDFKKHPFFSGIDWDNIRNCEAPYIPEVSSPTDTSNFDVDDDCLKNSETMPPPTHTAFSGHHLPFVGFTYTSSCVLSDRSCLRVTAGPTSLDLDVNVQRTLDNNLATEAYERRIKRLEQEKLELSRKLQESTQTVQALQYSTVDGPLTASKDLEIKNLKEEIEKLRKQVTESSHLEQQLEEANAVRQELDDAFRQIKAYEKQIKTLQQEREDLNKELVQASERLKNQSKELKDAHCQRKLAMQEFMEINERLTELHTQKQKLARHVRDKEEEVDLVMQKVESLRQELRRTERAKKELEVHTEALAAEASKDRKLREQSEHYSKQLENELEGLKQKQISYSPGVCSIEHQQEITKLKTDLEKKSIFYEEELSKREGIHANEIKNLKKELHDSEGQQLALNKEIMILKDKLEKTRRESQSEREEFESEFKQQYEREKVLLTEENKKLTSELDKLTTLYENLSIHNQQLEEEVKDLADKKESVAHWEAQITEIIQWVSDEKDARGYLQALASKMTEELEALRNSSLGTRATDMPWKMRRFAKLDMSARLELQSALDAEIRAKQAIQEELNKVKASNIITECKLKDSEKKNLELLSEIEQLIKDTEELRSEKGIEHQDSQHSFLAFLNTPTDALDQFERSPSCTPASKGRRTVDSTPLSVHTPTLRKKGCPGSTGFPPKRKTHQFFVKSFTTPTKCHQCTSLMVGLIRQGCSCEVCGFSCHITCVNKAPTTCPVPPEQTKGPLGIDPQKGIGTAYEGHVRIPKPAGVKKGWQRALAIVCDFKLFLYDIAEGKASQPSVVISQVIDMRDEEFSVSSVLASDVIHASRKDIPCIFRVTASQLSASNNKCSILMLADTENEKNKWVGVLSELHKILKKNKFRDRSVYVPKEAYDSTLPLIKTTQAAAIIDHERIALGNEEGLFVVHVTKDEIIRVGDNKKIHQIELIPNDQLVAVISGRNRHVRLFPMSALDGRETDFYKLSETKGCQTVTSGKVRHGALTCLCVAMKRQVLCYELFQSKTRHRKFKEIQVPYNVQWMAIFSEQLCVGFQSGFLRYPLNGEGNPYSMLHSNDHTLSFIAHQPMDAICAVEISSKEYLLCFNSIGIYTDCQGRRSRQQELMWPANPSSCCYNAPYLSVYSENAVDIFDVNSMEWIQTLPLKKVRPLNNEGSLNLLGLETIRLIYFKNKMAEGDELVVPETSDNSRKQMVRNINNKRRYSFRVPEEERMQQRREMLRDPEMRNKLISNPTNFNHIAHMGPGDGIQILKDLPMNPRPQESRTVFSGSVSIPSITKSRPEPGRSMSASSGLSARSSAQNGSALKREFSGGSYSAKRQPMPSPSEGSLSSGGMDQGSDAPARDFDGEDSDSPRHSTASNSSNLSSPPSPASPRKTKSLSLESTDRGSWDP
T8 sequence (Q7KZI7 1-725 isoform Q7KZI7-4): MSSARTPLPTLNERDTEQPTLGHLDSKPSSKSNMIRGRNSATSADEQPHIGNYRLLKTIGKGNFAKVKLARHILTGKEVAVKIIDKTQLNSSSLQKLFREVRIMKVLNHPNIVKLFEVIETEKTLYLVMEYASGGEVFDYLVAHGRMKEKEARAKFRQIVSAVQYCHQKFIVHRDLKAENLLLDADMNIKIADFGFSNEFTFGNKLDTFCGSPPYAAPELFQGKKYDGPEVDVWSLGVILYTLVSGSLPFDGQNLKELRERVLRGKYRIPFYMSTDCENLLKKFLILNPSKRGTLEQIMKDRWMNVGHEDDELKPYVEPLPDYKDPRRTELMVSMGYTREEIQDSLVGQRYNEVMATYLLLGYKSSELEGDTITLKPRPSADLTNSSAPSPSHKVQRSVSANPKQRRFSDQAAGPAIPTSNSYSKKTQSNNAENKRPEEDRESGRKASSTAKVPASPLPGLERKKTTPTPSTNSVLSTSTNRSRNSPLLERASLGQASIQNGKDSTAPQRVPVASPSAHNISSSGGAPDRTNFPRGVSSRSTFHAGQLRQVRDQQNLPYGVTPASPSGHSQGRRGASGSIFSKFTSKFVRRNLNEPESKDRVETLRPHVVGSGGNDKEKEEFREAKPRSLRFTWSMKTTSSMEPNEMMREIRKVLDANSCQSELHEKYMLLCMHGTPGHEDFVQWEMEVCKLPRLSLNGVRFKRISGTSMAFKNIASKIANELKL
Chain of JNK1α1 (h) (P45983 1-384 isoform P45983-2): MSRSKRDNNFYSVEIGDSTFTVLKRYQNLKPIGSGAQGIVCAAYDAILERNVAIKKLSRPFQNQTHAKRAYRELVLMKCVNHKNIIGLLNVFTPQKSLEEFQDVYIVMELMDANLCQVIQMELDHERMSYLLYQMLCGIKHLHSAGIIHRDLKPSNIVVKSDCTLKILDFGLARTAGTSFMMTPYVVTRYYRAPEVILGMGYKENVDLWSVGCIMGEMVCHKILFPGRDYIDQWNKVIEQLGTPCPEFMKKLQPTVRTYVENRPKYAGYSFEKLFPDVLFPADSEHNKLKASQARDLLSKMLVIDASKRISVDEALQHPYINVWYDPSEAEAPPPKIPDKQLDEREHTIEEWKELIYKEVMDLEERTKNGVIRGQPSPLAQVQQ
Chain of Plk1 (h) (P53350 whole entry): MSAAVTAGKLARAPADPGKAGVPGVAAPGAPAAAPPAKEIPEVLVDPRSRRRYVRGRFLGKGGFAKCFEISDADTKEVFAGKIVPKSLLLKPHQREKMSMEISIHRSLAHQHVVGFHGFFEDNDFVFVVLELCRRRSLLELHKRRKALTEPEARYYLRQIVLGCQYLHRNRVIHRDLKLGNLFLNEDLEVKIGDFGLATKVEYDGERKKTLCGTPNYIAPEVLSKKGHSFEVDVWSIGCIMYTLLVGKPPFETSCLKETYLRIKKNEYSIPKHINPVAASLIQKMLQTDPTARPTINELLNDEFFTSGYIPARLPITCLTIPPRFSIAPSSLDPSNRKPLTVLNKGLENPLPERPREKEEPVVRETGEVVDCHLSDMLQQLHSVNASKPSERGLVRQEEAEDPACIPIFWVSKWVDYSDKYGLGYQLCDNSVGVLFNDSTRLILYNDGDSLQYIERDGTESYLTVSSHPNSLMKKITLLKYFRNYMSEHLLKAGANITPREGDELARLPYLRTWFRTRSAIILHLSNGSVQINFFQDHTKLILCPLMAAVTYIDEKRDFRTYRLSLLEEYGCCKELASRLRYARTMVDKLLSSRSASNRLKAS
T2 sequence (P78368 whole entry): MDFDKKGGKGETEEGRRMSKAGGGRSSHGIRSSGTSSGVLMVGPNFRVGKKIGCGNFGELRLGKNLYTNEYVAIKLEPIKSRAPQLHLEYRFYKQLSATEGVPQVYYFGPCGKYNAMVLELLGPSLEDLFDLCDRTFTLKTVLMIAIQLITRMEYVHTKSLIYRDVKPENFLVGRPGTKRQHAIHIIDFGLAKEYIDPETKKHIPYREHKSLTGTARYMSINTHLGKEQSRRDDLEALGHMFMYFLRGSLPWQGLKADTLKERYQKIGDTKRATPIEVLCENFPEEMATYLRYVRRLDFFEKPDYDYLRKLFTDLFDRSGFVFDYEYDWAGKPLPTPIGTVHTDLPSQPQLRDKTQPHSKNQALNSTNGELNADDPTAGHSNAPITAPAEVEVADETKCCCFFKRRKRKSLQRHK
T7 sequence (P49760 whole entry): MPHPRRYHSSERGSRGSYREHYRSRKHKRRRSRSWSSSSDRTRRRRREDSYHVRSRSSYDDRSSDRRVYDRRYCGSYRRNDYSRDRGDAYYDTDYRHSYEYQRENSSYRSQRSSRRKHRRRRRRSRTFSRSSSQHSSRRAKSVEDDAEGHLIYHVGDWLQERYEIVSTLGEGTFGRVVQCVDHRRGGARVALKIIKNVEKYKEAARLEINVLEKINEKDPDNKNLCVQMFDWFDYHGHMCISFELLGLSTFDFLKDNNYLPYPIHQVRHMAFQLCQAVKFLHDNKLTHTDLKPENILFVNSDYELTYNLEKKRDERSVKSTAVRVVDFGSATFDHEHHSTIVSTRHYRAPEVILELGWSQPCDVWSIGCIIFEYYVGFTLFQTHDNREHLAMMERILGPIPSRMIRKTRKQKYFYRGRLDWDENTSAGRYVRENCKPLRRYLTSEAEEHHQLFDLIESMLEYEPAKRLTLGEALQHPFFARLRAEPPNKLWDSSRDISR

Take FAKLAARLYRKALARQLGVAA [MMI-0300]: the “% activity” value in the assay with Aurora-A (h) is listed as 92%; with CK1γ2 (h), 123%; with JNK1α1 (h), 97%.
For the sequence KAFAKLAARLYRKALARQLGVAA [MMI-0400], the “% activity” value with IGF-1R (h) is 90%; with JNK1α1 (h) it was 98%; in the assay with MRCKα (h), 97%; with PAK6 (h), 100%; with Snk (h) it was 131%.
In the case of “YARAAARQARAKALNRQLGVA (Mammalian) [MMI-0200]”, the “collagen levels in the lung (Masson's blue trichrome staining), dose response” value in assay [1] is given as “did not reduce, but rather increased the collagen deposition”. The “% activity” value with CK1γ1 (h) was determined as 98%; with CLK2 (h), 97%; with IGF-1R (h) it was 49%; in the assay with PAR-1Bα (h), 110%; with Plk1 (h), 128%. The “protein level of α-smooth muscle actin (α-SMA)” value in assay [2] is recorded as “no changes in the protein level”. Further, the “protein level of fibronectin (secreted fragments in conditioned media)” value in [3] was “no changes in the protein level”.
For “HRRIKAWLKKIKALARQLGVAA (Mammalian) [MMI-0500]”, the “% activity” value with Aurora-A (h) was determined as 110%; with MRCKα (h), 5%; with PAR-1Bα (h), 97%; in the assay with Snk (h) it was 122%; in the assay with c-RAF (h), 19%.
